# Measurements from paper doi:10.1101/2024.10.26.620377 (bioRxiv, 2024).
# How the values were obtained:
# [1] = target: GPR52 H8-A mutant, receptor-RLuc8 (human) (UniProt Q9Y2T5)
# [2] = target: GPR52 H8-A mutant, receptor-RLuc8 (human) (UniProt Q9Y2T5); test: FRET or BRET
# [3] = target: T1, GPR52 (wild-type), receptor-RLuc8 BRET biosensor (human, UniProt Q9Y2T5 1-361); test: FRET or BRET
# [4] = target: T1, GPR52 (wild-type), receptor-RLuc8 BRET …; test: FRET or BRET; remark: listed apart in the source
"Tango assay, constitutive β-arrestin2 recruitment, % Emax relative to wild-type [1] [% Emax]","% Emax of BRET, unliganded, relative to wild-type [2] [% Emax]","% Emax of BRET, agonist-induced, relative to the GLP-1R full response [3] [% Emax]","% Emax of BRET, agonist-induced, relative to wild-type [2] [% Emax]","% Emax of BRET, unliganded, relative to the GLP-1R full response [4] [% Emax]",Molecule
300,451,–,–,–,β-arrestin2-GFP2 (from UniProt P32121 1-409) (natural protein)
–,–,19.5,470,5.1,β-arrestin1-GFP2 (natural protein) MGDKGTRVFKKASPNGKLTVYLGKRDFVDHIDLVDPVDGVVLVDPEYLKERRVYVTLTCAFRYGREDLDVLGLTFRKDLFVANVQSFPPAPEDKKPLTRLQERLIKKLGEHAYPFTFEIPPNLPCSVTLQPGPEDTGKACGVDYEVKAFCAENLEEKIHKRNSVRLVIRKVQYAPERPGPQPTAETTRQFLMSDKPLHLEASLDKEIYYHGEPISVNVHVTNNTNKTVKKIKISVRQYADICLFNTAQYKCPVAMEEADDTVAPSSTFCKVYTLTPFLANNREKRGLALDGKLKHEDTNLASSTLLREGANREILGIIVSYKVKVKLVVSRGGLLGDLASSDVAVELPFTLMHPKPKEEPPHREVPENETPVDTNLIELDTNDDDIVFEDFARQRLKGMKDDKEEEEDGTGSPQLNNR
